Data published in the supplement of paper PMC10567573.

B1: CDC25A (parent)
chain: KKFRTKSRTWAGEKSKREMYSRLK

Variants of: B1
Assay: protein stability index of a GFP-peptide fusion (GPS, HEK-293T) (PSI 1-6); higher = more stable
Conditions: c terminus: a fixed tail appended
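Further: lentivirally expressed fusions sorted by FACS into six bins by GFP to DsRed ratio, PSI derived from sequencing read proportions per bin multiplied by bin number.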

Protein stability index of substitutions, site by site:
F3: I 3.06; R 3.51; H 3.1; W 3.48; M 3.61; P 2.85; C 3.22; S 3.48; T 3.59; Y 3; G 3.49; A 3.28; K 3.16; N 3.12; L 3.49
A11: Y 2.82; N 2.91; C 2.73; L 2.5; E 2.81; F 2.62; P 3.98; G 3.2; R 2.25; I 2.77; W 2.61; H 3.01; D 2.92; M 2.14; V 2.74; K 2.7; S 4.42; T 3.22; Q 3.28
R4: E 3.76; C 3.02; L 2.47; P 3.09; D 3.04; K 3.18; F 2.71; A 2.6; T 3.37; I 2.3; W 2.71; N 3.2; Y 3.63; S 2.42; Q 3.86; V 3.79; G 2.5; M 3.46; H 3.6
R17: Y 3.4; N 2.24; I 3.25; A 2.77; C 3.34; V 2.97; K 2.21; G 2.99; Q 3.17; F 2.86; P 4.04; D 3.6; H 3; T 3.48; L 2.84; S 3.08
W10: F 3.47; Q 4.03; G 3.92; Y 3.14; T 3.56; S 2.79; H 3.76; M 3.66; V 3.9; N 3.6; A 3.89; L 3.53; D 3.9; P 3.55; C 4.02; R 3.41; I 2.97
T5: E 3.37; F 3.25; P 2.39; S 3.71; K 3.12; G 3.33; I 2.5; Q 3.23; H 2.81; M 2.62; Y 3.24; A 2.15; V 3.85; R 3.06; W 3.02; N 3.56; C 2.87
K6: C 2.71; H 3.44; D 3.57; V 2.42; Y 2.92; F 2.37; P 2.93; G 3.23; S 2.32; I 2.01; Q 2.58; L 2.36; N 2.92; A 1.88; T 2.81; M 2.91
K2: P 2.6; W 2.63; Y 3.09; M 1.76; S 3.06; I 2.38
E18: D 3.12; C 3.07; K 1.94; I 3.64; Q 2.37; M 2.87; S 2.43; P 2.17; N 3; F 2.88; G 2.98; Y 1.9; W 4.23; H 2.71; L 2.64; T 2.19
K14: Q 3.09; S 2.44; M 3.07; N 4.05; G 4.36; V 2.41; A 2.82; I 2.71; R 2.61; P 3.36; H 2.82; T 3.1; F 2.44; L 2.51; C 2.54; W 1.6; Y 2.25
S21: Q 2.54; L 3.38; I 2.25; G 3.32; C 2.56; K 3.08; T 2.56; P 2.99; E 3.01
